These results are taken from PMC2064056.

In test [1] the target is LF2p, full-length coding region, GAL4 two-hybrid fusion (C. reinhardtii) (UniProt A0MM70). Nature of the test: two-hybrid.
Test [2] addresses LF1p (aa 1-330), GAL4 two-hybrid fusion (C. reinhardtii) (UniProt Q7XJJ6). Description: two-hybrid.

As for “LF3p, full-length coding region, GAL4 two-hybrid fusion (natural protein)”, the values for the β-galactosidase (Miller units) in test [1] and in test [2] were 15.8 Miller units and 61.1 Miller units, respectively.
